The source of these data is PMC5418593.

Series [1] has as its target T1, hEXOG-R314A (human, UniProt Q9Y2C4 59-368, R314A;del2-58). The experiment in a line: EMSA; 20 mM EDTA; apparent Kd; EK140: 20 mM HEPES pH 7.5, 140 mM KCl, 1 mM TCEP, 5% glycerol; plus 20 mM EDTA for anisotropy and EMSA (gel at 4 C, 0.5x TBE with 20 mM EDTA); ITC in EK140 at 20 C. The note with it: protein: recombinant; tags: C-terminal His-tag; chain copies: 2; label: 5'-32P; 10 bp duplex. For orientation: Mobility shift assays separate free from complexed probe on a gel.

Series [2] concerns the target T2, hEXOG wild type (hEXOG-dN58) (human, UniProt Q9Y2C4 59-368, del2-58). The description is as above. The settings on record: protein: recombinant; tags: C-terminal His-tag; chain copies: 2; label: 5'-32P; 10 bp duplex.
For series [3], the target named is T1, hEXOG-R314A. Put plainly: fluorescence anisotropy; 20 mM EDTA; apparent Kd; EK140: 20 mM HEPES pH 7.5, 140 mM KCl, 1 mM TCEP, 5% glycerol; plus 20 mM EDTA for anisotropy and EMSA (gel at 4 C, 0.5x TBE with 20 mM EDTA); ITC in EK140 at 20 C. The settings on record: protein: recombinant; tags: C-terminal His-tag; chain copies: 2; label: 3'-fluorescein; 10 bp duplex. (In general: Fluorescence polarisation rises when a labelled molecule tumbles more slowly, as on binding a larger partner.)

Series [4] deals with T2, hEXOG wild type (hEXOG-dN58). Put plainly: fluorescence anisotropy; 20 mM EDTA; apparent Kd (main text 6.2); EK140: 20 mM HEPES pH 7.5, 140 mM KCl, 1 mM TCEP, 5% glycerol; plus 20 mM EDTA for anisotropy and EMSA (gel at 4 C, 0.5x TBE with 20 mM EDTA); ITC in EK140 at 20 C. The settings on record: protein: recombinant; tags: C-terminal His-tag; chain copies: 2; label: 3'-fluorescein; 10 bp duplex.

The next series deals with hEXOG-H140A (human, UniProt Q9Y2C4 59-368, H140A;del2-58). The experiment in a line: X-ray crystallography; 1.85 A; DNA in both active sites; EK140: 20 mM HEPES pH 7.5, 140 mM KCl, 1 mM TCEP, 5% glycerol; plus 20 mM EDTA for anisotropy and EMSA (gel at 4 C, 0.5x TBE with 20 mM EDTA); ITC in EK140 at 20 C. The note with it: protein: recombinant; tags: C-terminal His-tag; chain copies: 2; 10 bp duplex; two duplexes per dimer.

The target of series [5] is T2, hEXOG wild type (hEXOG-dN58). Put plainly: fluorescence anisotropy; 20 mM EDTA; apparent Kd; EK140: 20 mM HEPES pH 7.5, 140 mM KCl, 1 mM TCEP, 5% glycerol; plus 20 mM EDTA for anisotropy and EMSA (gel at 4 C, 0.5x TBE with 20 mM EDTA); ITC in EK140 at 20 C. The note with it: protein: recombinant; tags: C-terminal His-tag; chain copies: 2; label: 3'-fluorescein; 10 bp duplex.

B1: 10 bp dsDNA, 5'-32P (dsDNA)
DNA 1: CTGACGTGCG
DNA 2: CGCACGTCAG
modifications: 5'-phosphate (32P)
Regarding B1, the figures for the Kd (with hEXOG-R314A [1]; in series [2]) were 26.5 ± 6.6 nM and 3.4 ± 1.2 nM, respectively.

B2: 10 bp 5'P-dsDNA, 3'-fluorescein (dsDNA)
DNA 1: CTGACGTGCG
DNA 2: CGCACGTCAG
modifications: 5'-phosphate on one strand
For the molecule B2, the Kd came out at 35.7 ± 7.2 nM with hEXOG-R314A [3] and 6.25 ± 2 nM in series [4].

B3: 10 bp DNA for crystallization (dsDNA)
DNA 1: CTGACGTGCG
DNA 2: CGCACGTCAG
modifications: 5'-phosphate on one strand only
As for B3, in the series with hEXOG-H140A, the binding result is listed as “binds”.

B4: 10 bp 5'OH-dsDNA, 3'-fluorescein (dsDNA)
DNA 1: CTGACGTGCG
DNA 2: CGCACGTCAG
modifications: 5'-OH
Turning to B4, the Kd in series [5] is 22.2 ± 5.1 nM.
